Patent publication US10512676B2, “Formulations comprising recombinant acid alpha-glucosidase” (Amicus Therapeutics, Inc., priority 2016, dated 2019)
pKd: −log10 of the molar value.

Key:
CIMPR = CIMPR (Homo sapiens, UniProt P11717); experiment: CIMPR plate binding assay
Protocol: In addition to having a greater percentage of rhGAA that can bind to the CIMPR, it is important to understand the quality of that interaction. […] Briefly, CIMPR-coated plates were used to capture GAA. Varying concentrations of rhGAA were applied to the immobilized receptor and unbound rhGAA was washed off. The amount of remaining rhGAA was determined by GAA activity.

[1] = tested on: Pompe fibroblasts and skeletal muscle myoblasts; experiment: Internalization by Pompe fibroblasts and skeletal muscle myoblasts; format: cell-based
[2] = Apparent plasma half-life in vivo
Gaa knockout mice [3] = experiment: Glycogen reduction in Gaa-knockout mice; format: in vivo, mouse
Source text: Animals were given two IV bolus administrations (every other week); tissues were harvested two weeks after the last dose and analyzed for acid α-glucosidase activity and glycogen content.
Tissues were collected 14 days after last enzyme dose for glycogen measurement.

Gaa knockout mice [4] = experiment: Muscle physiology and morphology in Gaa-knockout mice (LAMP1, PAS, vacuoles); format: in vivo, mouse
Protocol: Control mice were treated with vehicle alone. Soleus, quadriceps and diaphragm tissue is harvested two weeks after the last dose of recombinant human acid α-glucosidase. […] Semi-thin sections of quadriceps muscle embedded in epoxy resin (Epon) were stained with methylene blue and observed by […] (1000×) to determine the extent of the presence of vacuoles. Quadriceps muscle samples were analyzed immunohistochemically to determine levels of the autophagy markers microtubule-associated protein 1A/1B-light chain 3 phosphatidylethanolamine conjugate (LC3A II) and p62, the insulin-dependent glucose transporter GLUT4 and the insulin-independent glucose transporter GLUT1. […] Control mice were treated with vehicle alone. Cardiac muscle tissue was harvested two weeks after the last dose of recombinant human acid α-glucosidase and analyzed for glycogen levels, by staining with periodic acid—Schiff reagent (PAS), and for lysosome proliferation, by measuring levels of LAMPI.

[5] = Flocculation in human plasma; design: key to Plasma Macro (precipitation/coagulation score) / Plasma Micro (precipitation/coagulation score) / Plasma Pellet (score): 0=negative; 1=very slight precipitation or pellet; 2=minimal precipitation or pellet; 3=moderate precipitation or pellet; 4=significant precipitation or pellet
Protocol: (§1) Test article dosing solutions (3 concentrations) and the placebo (3 concentrations) were mixed with equal volumes of human plasma and serum from a donor. […] The placebo was the same as the test article except there was no ATB200 rhGAA.
(§2) One ml of each dose of test article or placebo, was mixed with an equal volume of plasma, serum and saline. Samples were incubated for 30 minutes at room temperature. After incubation the tubes were examined macroscopically and microscopically for precipitation or coagulation. An aliquot from each tube was centrifuged at 14,000 rpm in a microcentrifuge for 10 minutes. Each tube was examined for the presence or absence of a pellet. Precipitation/coagulation and pellets were scored as follows: • 0=negative • 1=very slight precipitation or pellet • 2=minimal precipitation or pellet • 3=moderate precipitation or pellet • 4=significant precipitation or pellet

[6] = Flocculation in human serum; design: key to Serum Macro (precipitation/coagulation score) / Serum Micro (precipitation/coagulation score) / Serum Pellet (score): 0=negative; 1=very slight precipitation or pellet; 2=minimal precipitation or pellet; 3=moderate precipitation or pellet; 4=significant precipitation or pellet
Protocol: as §1, §2

[7] = Plasma total GAA protein pharmacokinetics, phase 1/2 study in adults with Pompe disease; format: in vivo, human; conditions: for Total GAA Protein AUC0-t / Total GAA Protein AUC0-∞ / Total GAA Protein Cmax: n = 8, geometric mean
[8] = Safety and tolerability in patients with Pompe disease; format: in vivo, human; conditions: alone and in combination with miglustat
Protocol: Mean total GAA protein and miglustat PK results from the first 8 Cohort 1 patients through Visit 9 and the first 2 Cohort 3 patients were assessed.

[9] = Flocculation study: test article mixed with equal volume of saline (macro, micro, pellet); design: key: 0=negative; 1=very slight precipitation or pellet; 2=minimal precipitation or pellet; 3=moderate precipitation or pellet; 4=significant precipitation or pellet
Protocol: as §1, §2

[10] = Cohort 1, 5 mg/kg alone, n = 8, arithmetic mean
[11] = Cohort 1, 10 mg/kg alone, n = 8, arithmetic mean
[12] = Cohort 1, 20 mg/kg alone, n = 8, arithmetic mean
[13] = Cohort 1, ATB200 20 mg/kg + miglustat high MD, n = 8, arithmetic mean
[14] = Cohort 1, ATB200 20 mg/kg + miglustat high SD, n = 7, arithmetic mean
[15] = Cohort 1, ATB200 20 mg/kg + miglustat low MD, n = 8, arithmetic mean
[16] = Cohort 1, ATB200 20 mg/kg + miglustat low SD, n = 8, arithmetic mean
[17] = Cohort 3, ATB200 20 mg/kg + miglustat high MD (first Cohort 3 line), n = 2, arithmetic mean
[18] = Cohort 3, ATB200 20 mg/kg + miglustat high MD (second Cohort 3 line), n = 2, arithmetic mean

Chain of CIMPR (P11717 41-2491, species assumed): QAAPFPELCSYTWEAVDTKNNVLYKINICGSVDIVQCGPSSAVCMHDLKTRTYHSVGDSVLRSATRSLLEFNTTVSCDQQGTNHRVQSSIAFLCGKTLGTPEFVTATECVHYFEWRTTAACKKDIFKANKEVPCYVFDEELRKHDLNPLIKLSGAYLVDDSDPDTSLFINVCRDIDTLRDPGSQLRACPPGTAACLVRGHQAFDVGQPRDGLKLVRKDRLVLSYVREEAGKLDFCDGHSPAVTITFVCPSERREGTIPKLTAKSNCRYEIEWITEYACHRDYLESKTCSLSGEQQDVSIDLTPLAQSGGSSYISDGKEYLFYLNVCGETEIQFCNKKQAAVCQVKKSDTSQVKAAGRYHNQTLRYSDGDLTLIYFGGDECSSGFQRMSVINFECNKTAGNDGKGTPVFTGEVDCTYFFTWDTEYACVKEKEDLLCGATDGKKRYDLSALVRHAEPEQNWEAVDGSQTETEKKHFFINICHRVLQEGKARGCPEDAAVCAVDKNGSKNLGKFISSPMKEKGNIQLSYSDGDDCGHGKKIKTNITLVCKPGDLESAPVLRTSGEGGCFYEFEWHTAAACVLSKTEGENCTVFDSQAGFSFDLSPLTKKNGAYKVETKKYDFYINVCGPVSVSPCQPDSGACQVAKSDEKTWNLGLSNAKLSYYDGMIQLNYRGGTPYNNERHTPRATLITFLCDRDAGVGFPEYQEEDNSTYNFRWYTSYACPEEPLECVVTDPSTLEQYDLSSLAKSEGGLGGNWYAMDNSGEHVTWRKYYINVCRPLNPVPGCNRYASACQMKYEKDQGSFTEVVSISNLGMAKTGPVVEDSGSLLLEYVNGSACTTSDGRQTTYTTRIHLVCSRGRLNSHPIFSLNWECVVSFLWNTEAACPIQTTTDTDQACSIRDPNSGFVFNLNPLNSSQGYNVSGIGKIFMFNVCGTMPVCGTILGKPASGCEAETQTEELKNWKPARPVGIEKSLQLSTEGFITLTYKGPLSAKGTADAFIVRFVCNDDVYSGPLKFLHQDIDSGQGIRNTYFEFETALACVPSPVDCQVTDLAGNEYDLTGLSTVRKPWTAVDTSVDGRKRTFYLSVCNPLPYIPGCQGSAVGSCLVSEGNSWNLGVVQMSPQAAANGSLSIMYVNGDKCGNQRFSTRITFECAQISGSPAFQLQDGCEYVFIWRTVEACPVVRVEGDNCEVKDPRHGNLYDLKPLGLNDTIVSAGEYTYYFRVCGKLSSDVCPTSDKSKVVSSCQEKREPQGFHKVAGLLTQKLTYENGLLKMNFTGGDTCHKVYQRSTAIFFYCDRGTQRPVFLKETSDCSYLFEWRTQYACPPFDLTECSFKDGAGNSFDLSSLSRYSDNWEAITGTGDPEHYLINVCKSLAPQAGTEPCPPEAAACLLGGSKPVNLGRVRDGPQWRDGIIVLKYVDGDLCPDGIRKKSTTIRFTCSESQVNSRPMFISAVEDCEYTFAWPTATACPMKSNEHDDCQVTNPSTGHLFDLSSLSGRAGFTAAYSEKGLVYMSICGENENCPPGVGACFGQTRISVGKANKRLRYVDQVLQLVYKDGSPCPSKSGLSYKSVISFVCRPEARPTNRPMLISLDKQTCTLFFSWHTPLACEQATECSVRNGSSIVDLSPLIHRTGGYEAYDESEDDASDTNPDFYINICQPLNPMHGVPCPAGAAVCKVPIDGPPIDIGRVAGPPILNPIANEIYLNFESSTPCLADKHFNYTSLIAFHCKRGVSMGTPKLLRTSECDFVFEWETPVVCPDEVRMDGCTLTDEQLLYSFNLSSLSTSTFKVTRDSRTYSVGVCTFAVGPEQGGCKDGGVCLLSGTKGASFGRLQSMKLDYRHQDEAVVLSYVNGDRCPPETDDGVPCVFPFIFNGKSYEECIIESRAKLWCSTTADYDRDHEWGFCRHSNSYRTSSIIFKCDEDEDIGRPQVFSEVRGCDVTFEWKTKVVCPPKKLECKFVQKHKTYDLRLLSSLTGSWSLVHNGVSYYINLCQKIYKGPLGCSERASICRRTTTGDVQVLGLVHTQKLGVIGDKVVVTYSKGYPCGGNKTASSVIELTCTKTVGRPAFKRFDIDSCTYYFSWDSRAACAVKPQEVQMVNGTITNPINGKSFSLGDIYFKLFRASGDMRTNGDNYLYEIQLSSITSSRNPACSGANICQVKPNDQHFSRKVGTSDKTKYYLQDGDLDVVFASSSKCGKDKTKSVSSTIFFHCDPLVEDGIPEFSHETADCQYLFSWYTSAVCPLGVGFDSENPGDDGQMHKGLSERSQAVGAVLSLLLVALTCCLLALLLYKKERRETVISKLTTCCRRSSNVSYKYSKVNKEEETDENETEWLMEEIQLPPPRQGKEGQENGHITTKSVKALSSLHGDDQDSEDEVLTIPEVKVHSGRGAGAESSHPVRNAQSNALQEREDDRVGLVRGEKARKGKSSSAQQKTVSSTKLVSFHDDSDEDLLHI

In the case of “ATB200: recombinant human acid α-glucosidase expressed in CHO cells with increased content of M6P-bearing N-glycans”, the pKd (CIMPR; binding to CIMPR, M6P receptor plate binding assays) was 8.40 to 8.70, the “binding to CIMPR” value (CIMPR; versus Lumizyme, FIG. 10A) was “bound to CIMPR significantly better than Lumizyme®” and the Kuptake [1] was 7 to 14 nM. For the same substance, the “apparent plasma half-life (t1/2)” value [2] was ~0.75 h, the “relative reduction of glycogen in quadriceps and triceps” value (Gaa knockout mice [3]; 20 mg/kg IV every other week, 4 injections, FIG. 13) was “greater reduction of glycogen than Lumizyme®” and the tissue glycogen depletion (Gaa knockout mice [3]; 5, 10, 20 mg/kg, two IV bolus administrations every other week) was “deplete tissue glycogen in acid α-glucosidase (Gaa) knockout mice in a dose-dependent fashion”. The “reduction of glycogen levels in skeletal muscles” value (Gaa knockout mice [3]; ATB200 10 and 20 mg/kg vs Lumizyme 20 mg/kg) was “significantly better reduction of glycogen levels in skeletal muscles than Lumizyme®”, the “lysosome proliferation (LAMP1)” value (Gaa knockout mice [4]; 20 mg/kg every other week, heart, diaphragm, soleus) was “reduction in lysosome proliferation in heart, diaphragm and skeletal muscle (soleus) tissue compared to conventional treatment with alglucosidase alfa” and the “punctate glycogen levels (PAS)” value (Gaa knockout mice [4]; 20 mg/kg every other week, heart, soleus) was “reduction in punctate glycogen levels in heart and skeletal muscle (soleus) tissue compared to conventional treatment with alglucosidase alfa”. The “number of vacuoles in muscle fiber in quadriceps” value (Gaa knockout mice [4]; 20 mg/kg, two IV bolus administrations) was “significantly reduced the number of vacuoles in muscle fiber in the quadriceps of Gaa knockout mice”, the “Plasma Macro (precipitation/coagulation score)” value ([5]; Final concentration 300 μg/mL) was 0 and the “Plasma Micro (precipitation/coagulation score)” value ([5]; Final concentration 300 μg/mL) was 0. For the same substance, the “Plasma Pellet (score)” value ([5]; Final concentration 300 μg/mL) was 0, the “Plasma Macro (precipitation/coagulation score)” value ([5]; Final concentration 600 μg/mL) was 0 and the “Plasma Micro (precipitation/coagulation score)” value ([5]; Final concentration 600 μg/mL) was 0. For the same substance, the “Plasma Pellet (score)” value ([5]; Final concentration 600 μg/mL) was 0, the “Plasma Macro (precipitation/coagulation score)” value ([5]; Final concentration 1000 μg/mL) was 0 and the “Plasma Micro (precipitation/coagulation score)” value ([5]; Final concentration 1000 μg/mL) was 0. The “Plasma Pellet (score)” value ([5]; Final concentration 1000 μg/mL) was 0, the pellet after centrifugation ([5]; human plasma, 14,000 rpm 10 minutes) was “no pellets were observed” and the “precipitation, macroscopic and microscopic” value ([5]; human plasma, each ATB200 concentration, 30 minutes at room temperature) was “No precipitation was observed macroscopically or microscopically”. For the same substance, the “Serum Macro (precipitation/coagulation score)” value ([6]; Final concentration 300 μg/mL) was 0, the “Serum Micro (precipitation/coagulation score)” value ([6]; Final concentration 300 μg/mL) was 0 and the “Serum Pellet (score)” value ([6]; Final concentration 300 μg/mL) was 0. For the same substance, the “Serum Macro (precipitation/coagulation score)” value ([6]; Final concentration 600 μg/mL) was 0, the “Serum Micro (precipitation/coagulation score)” value ([6]; Final concentration 600 μg/mL) was 0 and the “Serum Pellet (score)” value ([6]; Final concentration 600 μg/mL) was 0. For the same substance, the “Serum Macro (precipitation/coagulation score)” value ([6]; Final concentration 1000 μg/mL) was 0, the “Serum Micro (precipitation/coagulation score)” value ([6]; Final concentration 1000 μg/mL) was 0 and the “Serum Pellet (score)” value ([6]; Final concentration 1000 μg/mL) was 0. The pellet after centrifugation ([6]; human serum, 14,000 rpm 10 minutes) was “no pellets were observed”, the “precipitation, macroscopic and microscopic” value ([6]; human serum, each ATB200 concentration, 30 minutes at room temperature) was “No precipitation was observed macroscopically or microscopically” and the “increase of distribution half-life (α-phase)” value ([7]; ATB200 20 mg/kg with miglustat 260 mg relative to ATB200 alone) was 45%. The “increase of total GAA protein exposure (AUC)” value ([7]; ATB200 20 mg/kg with miglustat 260 mg relative to ATB200 alone at 20 mg/kg) was “approximately 25%”, the “dose proportionality of plasma total GAA protein” value ([7]; ATB200 given alone, 5, 10, 20 mg/kg) was “increases in a slightly greater-than-dose-proportional manner” and the “Total GAA Protein CLT” value [7, 10] was 2.1 L/h. The “Total GAA Protein VSS” value [7, 10] was 4.62 L, the “Total GAA Protein αt1/2” value [7, 10] was 1.1 h and the “Total GAA Protein βt1/2” value [7, 10] was 1.9 h. The “Total GAA Protein AUC0-t” value ([7]; Cohort 1, 5 mg/kg alone) was 0.215 µg·h/mL, the “Total GAA Protein AUC0-∞” value ([7]; Cohort 1, 5 mg/kg alone) was 0.218 µg·h/mL and the “Total GAA Protein Cmax” value ([7]; Cohort 1, 5 mg/kg alone) was 0.061 µg/mL. The “Total GAA Protein tmax” value ([7]; Cohort 1, 5 mg/kg alone, n = 8, median) was 3.8 h, the “Total GAA Protein CLT” value [7, 11] was 1.59 L/h and the “Total GAA Protein VSS” value [7, 11] was 3.87 L. For the same substance, the “Total GAA Protein αt1/2” value [7, 11] was 1.3 h, the “Total GAA Protein βt1/2” value [7, 11] was 1.6 h and the “Total GAA Protein AUC0-t” value ([7]; Cohort 1, 10 mg/kg alone) was 0.578 µg·h/mL. For the same substance, the “Total GAA Protein AUC0-∞” value ([7]; Cohort 1, 10 mg/kg alone) was 0.584 µg·h/mL, the “Total GAA Protein Cmax” value ([7]; Cohort 1, 10 mg/kg alone) was 0.144 µg/mL and the “Total GAA Protein CLT” value [7, 12] was 1.22 L/h. The “Total GAA Protein VSS” value [7, 12] was 3.52 L, the “Total GAA Protein αt1/2” value [7, 12] was 1.5 h and the “Total GAA Protein βt1/2” value [7, 12] was 2.1 h. For the same substance, the “Total GAA Protein AUC0-t” value ([7]; Cohort 1, 20 mg/kg alone) was 1.508 µg·h/mL, the “Total GAA Protein AUC0-∞” value ([7]; Cohort 1, 20 mg/kg alone) was 1.512 µg·h/mL and the “Total GAA Protein Cmax” value ([7]; Cohort 1, 20 mg/kg alone) was 0.345 µg/mL. The “Total GAA Protein CLT” value [7, 13] was 0.98 L/h, the “Total GAA Protein αt1/2” value [7, 13] was 2.1 h and the “Total GAA Protein βt1/2” value [7, 13] was 2.5 h. The “Total GAA Protein CLT” value [7, 14] was 0.98 L/h, the “Total GAA Protein αt1/2” value [7, 14] was 2.3 h and the “Total GAA Protein βt1/2” value [7, 14] was 2.7 h. For the same substance, the “Total GAA Protein CLT” value [7, 15] was 1.02 L/h, the “Total GAA Protein αt1/2” value [7, 15] was 1.9 h and the “Total GAA Protein βt1/2” value [7, 15] was 2.5 h. For the same substance, the “Total GAA Protein CLT” value [7, 16] was 1.09 L/h, the “Total GAA Protein αt1/2” value [7, 16] was 1.8 h and the “Total GAA Protein βt1/2” value [7, 16] was 2.4 h. For the same substance, the “Total GAA Protein CLT” value [7, 17] was 0.69 L/h, the “Total GAA Protein αt1/2” value [7, 17] was 2 h and the “Total GAA Protein βt1/2” value [7, 17] was 2.4 h. The “Total GAA Protein CLT” value [7, 18] was 0.66 L/h, the “Total GAA Protein αt1/2” value [7, 18] was 1.9 h and the “Total GAA Protein βt1/2” value [7, 18] was 2.6 h. The volume of distribution ([7]; in vivo) was “relatively high volume of distribution”, the safety and tolerability [8] was “safe and well tolerated” and the “Saline Macro (precipitation/coagulation score)” value ([9]; Final concentration 300 μg/mL) was 0. The “Saline Micro (precipitation/coagulation score)” value ([9]; Final concentration 300 μg/mL) was 0, the “Saline Pellet (score)” value ([9]; Final concentration 300 μg/mL) was 0 and the “Saline Macro (precipitation/coagulation score)” value ([9]; Final concentration 600 μg/mL) was 0. The “Saline Micro (precipitation/coagulation score)” value ([9]; Final concentration 600 μg/mL) was 0, the “Saline Pellet (score)” value ([9]; Final concentration 600 μg/mL) was 0 and the “Saline Macro (precipitation/coagulation score)” value ([9]; Final concentration 1000 μg/mL) was 0. The “Saline Micro (precipitation/coagulation score)” value ([9]; Final concentration 1000 μg/mL) was 0 and the “Saline Pellet (score)” value ([9]; Final concentration 1000 μg/mL) was 0.
